The values that follow come from US20240287172A1 (SCIRHOM, published 2024).

This assay concerns the target T1, hiR2-FL-G546A-T7 (human, UniProt Q6PJF5 1-856).
T1 sequence: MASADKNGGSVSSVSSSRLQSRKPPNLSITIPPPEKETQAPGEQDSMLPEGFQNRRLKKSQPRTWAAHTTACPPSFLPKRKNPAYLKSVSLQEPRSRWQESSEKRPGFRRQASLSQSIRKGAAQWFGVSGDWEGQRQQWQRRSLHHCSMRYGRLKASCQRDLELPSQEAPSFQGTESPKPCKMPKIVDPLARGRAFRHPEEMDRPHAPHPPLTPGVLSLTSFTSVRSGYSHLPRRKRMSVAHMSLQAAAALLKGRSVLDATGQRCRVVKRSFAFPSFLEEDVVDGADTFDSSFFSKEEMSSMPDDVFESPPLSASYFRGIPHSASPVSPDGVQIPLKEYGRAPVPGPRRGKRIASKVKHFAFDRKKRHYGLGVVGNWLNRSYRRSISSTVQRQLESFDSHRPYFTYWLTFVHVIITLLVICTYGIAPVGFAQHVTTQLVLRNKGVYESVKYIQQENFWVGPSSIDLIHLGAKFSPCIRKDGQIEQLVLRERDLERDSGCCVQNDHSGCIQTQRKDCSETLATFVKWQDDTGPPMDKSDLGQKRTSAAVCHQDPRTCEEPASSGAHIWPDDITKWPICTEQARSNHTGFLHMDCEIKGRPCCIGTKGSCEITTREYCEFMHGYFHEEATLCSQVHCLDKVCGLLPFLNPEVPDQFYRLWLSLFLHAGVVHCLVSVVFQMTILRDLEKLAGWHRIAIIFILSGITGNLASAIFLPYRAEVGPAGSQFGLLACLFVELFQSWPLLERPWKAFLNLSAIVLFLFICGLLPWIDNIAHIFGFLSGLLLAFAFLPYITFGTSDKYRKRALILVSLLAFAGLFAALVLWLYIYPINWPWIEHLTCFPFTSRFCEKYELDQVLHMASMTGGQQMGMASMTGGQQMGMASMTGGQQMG
The experiment in a line: FACS on MEF-DKO cells.

B1: antibody 5 (antibody, V domains shown)
VH: QVTLKESGPGILQPSQTLSLTCSFSGFSLSTFGMGVGWIRQPSGKGLEWLAHIWWDDEKYYNSALKSRLTISKATSKNQAFLKIANVDTADTATYYCARISNYGSNYWYFNVWGTGTTVTVSS
VL: QVVLTQSPALMSASPGEKVTMTCSAGSSVSCMYWYQQKPGSSPRVLIYDTSNLASGVPARFTGSGSGTSYSLTISRMEAEDAASYYCQQWNSYPLTFGAGTKLELK
notes: mouse IgG, kappa light chain; also called clone #5; purified antibody 5
Turning to B1, the binding result is recorded as “no binding (tested: 3 µg/ml)”.
